From the RNAGym collection of RNA variant scans (doi:10.7554/elife.80360)

B1: HDV Ribozyme (parent)
chain: GGCCGGCAUGGUCCCAGCCUCCUCGCUGGCGCCGGCUGGGCAACAUUCCGAGGGGACCGUCCCCUCGGUAAUGGCGAAUGGGACCCA

Variants of: B1
Experiment: self-cleavage, relative activity (ratio to wild type); higher = more cleavage; co-transcriptional
In the case of C48U U79A, the self-cleavage is reported as 0.706.
In the case of U37A U72A, the self-cleavage is reported as 0.125.
C3U U23A showed a self-cleavage of 0.9.
For G35U C84A, the self-cleavage was 0.308.
With U46C C85U the self-cleavage was 0.615.
C4G U65C showed a self-cleavage of 0.18.
For C61A C85A, the self-cleavage was 1.09.
In the case of G11C C86U, the self-cleavage is reported as 0.38.
Work on A16C G67C yielded a self-cleavage of 0.692.
Variant C22A U69G has a self-cleavage of 0.394.
With C3U G35A the self-cleavage was 0.694.
With C24A G31C the self-cleavage was 0.0583.
C36U C64U gave a self-cleavage of 0.628.
Work on C26G U46A yielded a self-cleavage of 0.731.
G59U A70C gave a self-cleavage of 0.77.
With G1U C14A the self-cleavage was 0.222.
For C14A A70C, the self-cleavage was 0.467.
U20G A56U gave a self-cleavage of 0.178.
U47A G59C showed a self-cleavage of 1.11.
A45C U79G showed a self-cleavage of 0.293.
G38A C41G showed a self-cleavage of 0.291.
For G11U C85A, the self-cleavage was 0.755.
C33G G80A showed a self-cleavage of 0.0631.
Variant C24A C49U has a self-cleavage of 0.623.
Variant G10U C63U has a self-cleavage of 0.686.
For U12A C15G, the self-cleavage was 0.
For C13G G67A, the self-cleavage was 0.138.
Variant C15U U46G has a self-cleavage of 0.499.
For C30G A45U, the self-cleavage was 0.107.
Work on G31A A83C yielded a self-cleavage of 0.0811.
Variant C3G U9C has a self-cleavage of 0.554.
For C41G G73C, the self-cleavage was 0.877.
Work on A16U U23G yielded a self-cleavage of 0.575.
Work on C33G A45C yielded a self-cleavage of 0.0449.
C41G C66U showed a self-cleavage of 0.683.
For C26A U46C, the self-cleavage was 0.745.
In the case of U65A G68U, the self-cleavage is reported as 0.87.
With A8G C21A the self-cleavage was 0.0415.
C15A G29C gave a self-cleavage of 0.0692.
U65C G81C showed a self-cleavage of 0.227.
Work on C13A C19A yielded a self-cleavage of 0.0302.
Variant U27G C75G has a self-cleavage of 0.119.
A16U C26U gave a self-cleavage of 0.831.
For A42U G76U, the self-cleavage was 0.745.
Work on U12A G28C yielded a self-cleavage of 0.
For U9G C30A, the self-cleavage was 0.653.
For U47C A71G, the self-cleavage was 1.13.
Variant U46A C75U has a self-cleavage of 0.0665.
C15A C49U gave a self-cleavage of 0.656.
C32U G34A gave a self-cleavage of 0.0302.
In the case of C22A G40A, the self-cleavage is reported as 0.367.
In the case of G39A G50U, the self-cleavage is reported as 0.441.
G2U G34C gave a self-cleavage of 0.0484.
A16C G67U showed a self-cleavage of 1.17.
For G6U C30U, the self-cleavage was 0.131.
In the case of G6U A45G, the self-cleavage is reported as 0.403.
U9G U65G gave a self-cleavage of 0.782.
With C3G C58A the self-cleavage was 0.842.
Variant U65G G68U has a self-cleavage of 0.491.
In the case of G52A G74U, the self-cleavage is reported as 0.561.
For U37A U65G, the self-cleavage was 0.244.
G35U A70U gave a self-cleavage of 0.496.
For U27A G74C, the self-cleavage was 0.
A8U G53C gave a self-cleavage of 1.01.
Work on C22A G34U yielded a self-cleavage of 0.0536.
With G53A A71G the self-cleavage was 0.941.
Work on C36A A87G yielded a self-cleavage of 0.125.
G29C G54C gave a self-cleavage of 0.0692.
For C48G A70G, the self-cleavage was 0.772.
C58U G73U gave a self-cleavage of 0.343.
In the case of C21U G34C, the self-cleavage is reported as 0.
For G10C U37C, the self-cleavage was 1.05.
Variant C4A G17C has a self-cleavage of 0.0386.
With G55U C75A the self-cleavage was 0.153.
Variant U9C A43G has a self-cleavage of 0.755.
Work on C63A C86G yielded a self-cleavage of 1.02.
Work on C13G U69A yielded a self-cleavage of 0.0437.
In the case of C3U C63A, the self-cleavage is reported as 0.909.
G31C A71G gave a self-cleavage of 0.253.
For U65G A83U, the self-cleavage was 0.571.
For C33A U60G, the self-cleavage was 0.116.
C26A G34A showed a self-cleavage of 0.486.
For C15G G54A, the self-cleavage was 0.534.
G59U U79A showed a self-cleavage of 0.929.
Work on C63A A83C yielded a self-cleavage of 0.271.
Work on U37C A56C yielded a self-cleavage of 1.11.
For C7U U60A, the self-cleavage was 0.682.
In the case of C24A G59A, the self-cleavage is reported as 0.842.
With C26A G73C the self-cleavage was 0.522.
C14G G74A showed a self-cleavage of 0.199.
In the case of A77G U79C, the self-cleavage is reported as 0.443.
C15A C84A gave a self-cleavage of 0.539.
For C3A G11U, the self-cleavage was 0.138.
In the case of A8U C84A, the self-cleavage is reported as 0.95.
Work on U27A C58G yielded a self-cleavage of 0.831.
C22U C85A gave a self-cleavage of 0.59.
Variant A45U G55C has a self-cleavage of 0.956.
In the case of G17A C49U, the self-cleavage is reported as 0.853.
For U69G A70G, the self-cleavage was 0.767.
For C24U G59C, the self-cleavage was 0.845.
Variant C7U A8U has a self-cleavage of 0.831.
In the case of G81C C86G, the self-cleavage is reported as 0.138.
For A56U G67A, the self-cleavage was 1.17.
Work on A8C G10A yielded a self-cleavage of 0.95.
Work on C14U C48U yielded a self-cleavage of 1.02.
Variant G6U C64G has a self-cleavage of 0.388.
G38C C84G gave a self-cleavage of 0.0489.
Variant C15A G29U has a self-cleavage of 0.
With G35U U72C the self-cleavage was 0.0811.
With C30G G76A the self-cleavage was 0.0554.
C3U U69G gave a self-cleavage of 0.649.
In the case of U9C A83C, the self-cleavage is reported as 0.475.
Work on A16U A77G yielded a self-cleavage of 0.739.
Variant G35A G82U has a self-cleavage of 0.241.
Work on G74U C86G yielded a self-cleavage of 0.485.
For A8C G38U, the self-cleavage was 0.0875.
In the case of C3G A83U, the self-cleavage is reported as 0.0678.
For G39U G68U, the self-cleavage was 0.56.
A45C C62U showed a self-cleavage of 0.895.
With C26U G38A the self-cleavage was 0.0573.
G68A C86G gave a self-cleavage of 1.07.
Work on U37G G76U yielded a self-cleavage of 0.104.
Work on U9C A45C yielded a self-cleavage of 0.957.
G53C C75A gave a self-cleavage of 0.175.
For C4G G52A, the self-cleavage was 0.47.
Variant C22A C48G has a self-cleavage of 0.363.
In the case of G74A U79C, the self-cleavage is reported as 0.118.
For G52C G53A, the self-cleavage was 0.733.
In the case of C58A U65G, the self-cleavage is reported as 1.05.
C33U C63U gave a self-cleavage of 0.845.
Variant C49G C64U has a self-cleavage of 0.973.
In the case of U46G C58U, the self-cleavage is reported as 0.532.
Work on G39A A77C yielded a self-cleavage of 0.108.
In the case of U60C G73U, the self-cleavage is reported as 0.352.
Variant U37C A70U has a self-cleavage of 0.974.
In the case of C33A U72G, the self-cleavage is reported as 0.122.
C18A C48U showed a self-cleavage of 0.0627.
U47G C61U showed a self-cleavage of 0.943.
Work on C61A U72G yielded a self-cleavage of 0.554.
With C7A G29A the self-cleavage was 0.0804.
In the case of C24A C36G, the self-cleavage is reported as 0.0678.
In the case of G25C G82A, the self-cleavage is reported as 0.0361.
C21U U37C gave a self-cleavage of 0.354.
C15U G68U showed a self-cleavage of 0.88.
Variant A43G A83U has a self-cleavage of 0.266.
Variant C64U A78U has a self-cleavage of 0.297.
U9A C18A gave a self-cleavage of 0.107.
Work on G11U G74U yielded a self-cleavage of 0.1.
Work on C58A C75G yielded a self-cleavage of 0.116.
C4G A16C gave a self-cleavage of 0.0755.
U37G G53A showed a self-cleavage of 0.147.
A43C C58A gave a self-cleavage of 0.394.
Work on G52A G55A yielded a self-cleavage of 0.893.
A43G C86A showed a self-cleavage of 0.712.
With U23G G73C the self-cleavage was 0.0773.
C3A G28U showed a self-cleavage of 0.0536.
Variant C66G G80A has a self-cleavage of 0.338.
In the case of C44U G80U, the self-cleavage is reported as 0.148.
Work on C4G G50A yielded a self-cleavage of 0.415.
G1A A83C gave a self-cleavage of 0.138.
Variant C33A G35A has a self-cleavage of 0.151.
In the case of C7U G82C, the self-cleavage is reported as 0.227.
Work on U20G G40U yielded a self-cleavage of 0.131.
C18G G55C gave a self-cleavage of 0.185.
Variant C30G G53C has a self-cleavage of 0.237.
For C61G G74A, the self-cleavage was 0.429.
Variant G28U A42G has a self-cleavage of 0.0426.
